Assay results from patent publication US20210196823A1, “Methods of Treating Metabolic Disease” (Pfizer Inc., priority 2018, published 2021).

Assays:
Huh7 cells = assay: Activity of erythroferrone domains and subunits in Huh7 cells (qRT-PCR); type: cell-based; settings: FIG. 8A
Experimental: FIG. 6. The C1q domain is not required for erythroferrone activity: (FIG. 6A) Huh7 cells were treated for 24 h with full-length or C1q domain of human erythroferrone (10 μg/ml). (FIG. 6B) Huh7 cells were treated for 24 h with adipoferrone (construct containing N-terminal domain of adiponectin and C1q domain of erythroferrone) or C1q trimer (Tri-C1q) derived from mouse erythroferrone at 10 μg/ml. Gene expression measured by qRT-PCR. Data represents mean+standard deviation (n=3). ***p<0.001; ****p<0.0001.
FIG. 8. Erythroferrone subunits designed based on predicted patterns of furin cleavage differ in their ability to suppress hepcidin: (FIG. 8A) mono-Fc-huERFE A4 construct suppresses hepcidin expression, (FIG. 8B) Huh7 cells were treated for 24 h with human erythroferrone subunits that were designed to represent all the potential Erfe subunits that could be formed assuming activity at both in silico-predicted furin cleavage sites. (see FIG. 7A). Gene expression measured by qRT-PCR. Data represents mean+standard deviation (n=3). ***p<0.001; ****p<0.0001.
Erythroferrone is a member of the C1q/TNF-related protein (CTRP) family and comprises a structure composed of a signal peptide, an N-terminal, a collagen-like domain, and a globular C terminal domain homologous to complement protein 1q (C1q). […]

furin = furin (Homo sapiens, UniProt P09958); assay: Furin cleavage of wild-type and RARR-AAAA (A4) Erfe mutant, Coomassie staining; type: biochemical; settings: RARR site mutated to AAAA vs wild-type
Description: FIG. 7. Mutation of the RARR furin cleavage site at the N-terminal of Erfe prevents cleavage by furin. (FIG. 7A) Diagrammatic structure of full length human erythroferrone and potential subunits generated after furin cleavage. (FIG. 7B) Coomassie blue staining of wild-type and an RARR-AAAA(A4) Erfe mutant, in the presence or absence of furin protease.
Sequence analysis of human erythroferrone using the ProP software predicted two furin cleavage sites: RARR at position 42 and RLRR at position 212 (FIG. 7A). The RLRR site is conserved in the mouse ortholog (position 198).

[1] = system: ERFE suppression of hepcidin production; assay: NanoLuc assay: anti-ERFE antibody with monoFC-huErfe and BMP6; type: cell-based; settings: tripling dilutions from 500 nM, BMP6 625 pM, monoFC-huErfe 20 nM
Experimental: The was measured in-vitro using as follows: A hepcidin transcriptional fusion reporter assay (nano-luc or nano-luciferase assay) was developed to assess the effect of BMPs on hepcidin production in-vitro. A nanoluciferase reporter was inserted at the end of the coding sequence of the endogenous HAMP gene, in HepG2 hepatoma cells, creating a HAMP-nanoluciferase fusion. CRISPR-Cas9 was used to edit the cells with this knock-in reporter construct. A bovine Growth Hormone poly A was included after the nanoLuc to ensure proper mRNA processing. A Puromycin-TK expression cassette was also included 3′ of the nanoluc reporter to enrich for properly targeted clones. Clones that were homozygous for the HAMP-NanoLuc fusion were selected and tested for their response to BMPs and LDN(4-[6-[4-(1-Piperazinyl)phenyl]pyrazolo[1,5-a]pyrimidin-3-yl]quinoline dihydrochloride), a potent ALK2/3 BMP inhibitor, a schematic of the nano-luc construct is shown in FIG. 1B. The effect of representative BMPs (BMP, 2, 6, 9) on the Hamp-nanoLuc signal was assessed. Approximately 20,000 cells (cells split with trypsin/EDTA) were suspended in 200 uL of complete media (DMEM+10% serum+Na pyruvate) and were distributed into each well of 96-well plates and incubated for 24 hours at 37 C. […] Plates were read on Envision with Lum700 program following the manufacturer's instructions. […]

murine ERFE = biological target: T1, murine ERFE (Mus musculus, UniProt Q6PGN1); assay: HAMP and ID1 qRT-PCR in HUH7 cells with BMP 5, 6 or 7, murine ERFE and anti-ERFE antibody 15.1; type: cell-based; settings: BMP 5, 6 or 7 2 nM, murine ERFE 1 μg/ml, antibody 10 μg/ml, 6 h
T1 sequence (Q6PGN1 25-340): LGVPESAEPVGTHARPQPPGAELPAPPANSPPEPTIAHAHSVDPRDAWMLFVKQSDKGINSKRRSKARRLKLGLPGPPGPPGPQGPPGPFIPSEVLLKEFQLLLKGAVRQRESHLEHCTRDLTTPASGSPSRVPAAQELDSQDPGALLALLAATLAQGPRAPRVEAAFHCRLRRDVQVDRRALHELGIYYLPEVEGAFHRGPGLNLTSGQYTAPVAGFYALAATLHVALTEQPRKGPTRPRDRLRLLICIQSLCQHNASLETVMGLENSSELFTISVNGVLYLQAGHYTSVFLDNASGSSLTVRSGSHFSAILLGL
Experimental: HUH7 cells treated with BMP 5, 6 or 7 (2 nM), murine ERFE (1 μg/ml) and anti-ERFE antibody 15.1 (10 μg/ml), alone or in combination, for 6 h. HAMP and ID1 gene expression was measured by qRT-PCR and expressed as fold-change relative to untreated cells, FIGS. 11A and 11B.

furin, sequence (P09958 108-794, species assumed): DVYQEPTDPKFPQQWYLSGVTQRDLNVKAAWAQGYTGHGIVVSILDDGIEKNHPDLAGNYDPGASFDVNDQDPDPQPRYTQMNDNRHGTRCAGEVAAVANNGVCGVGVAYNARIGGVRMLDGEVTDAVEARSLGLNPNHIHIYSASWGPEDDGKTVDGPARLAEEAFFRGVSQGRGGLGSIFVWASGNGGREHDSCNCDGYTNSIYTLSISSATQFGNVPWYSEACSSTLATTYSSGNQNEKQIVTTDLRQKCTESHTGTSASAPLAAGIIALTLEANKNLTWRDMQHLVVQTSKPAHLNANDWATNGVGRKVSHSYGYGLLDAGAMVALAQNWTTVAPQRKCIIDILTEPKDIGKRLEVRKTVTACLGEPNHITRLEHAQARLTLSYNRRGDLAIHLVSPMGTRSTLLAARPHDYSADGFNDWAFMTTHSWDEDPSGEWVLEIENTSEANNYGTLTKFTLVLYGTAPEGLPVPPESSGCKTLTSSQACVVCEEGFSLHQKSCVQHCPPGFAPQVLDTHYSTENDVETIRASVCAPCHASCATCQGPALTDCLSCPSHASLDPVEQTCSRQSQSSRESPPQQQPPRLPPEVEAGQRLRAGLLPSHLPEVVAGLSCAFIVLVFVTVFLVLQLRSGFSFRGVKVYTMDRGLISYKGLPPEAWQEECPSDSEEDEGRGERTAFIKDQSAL

B1: monoFC-huErfe A4: human erythroferrone mono-Fc construct with RARR furin cleavage site mutated to AAAA (protein)
chain: AAGLGSPEPGAPSRSAAAAEPPPGNELPRGPGESRAGPAARPPEPTAERAHSVDPRDAWMLFVRQSDKGVNGKKRSRGKAKKLKFGLPGPPGPPGPQGPPGPIIPPEALLKEFQLLLKGAVRQRERAEPEPCTCGPAGPVAASLAPVSATAGEDDDDVVGDVLALLAAPLAPGPRAPRVEAAFLCRLRRDALVERRALHELGVYYLPDAEGAFRRGPGLNLTSGQYRAPVAGFYALAATLHVALGEPPRRGPPRPRDHLRLLICIQSRCQRNASLEAIMGLESSSELFTISVNGVLYLQMGQWTSVFLDNASGCSLTVRSGSHFSAVLLGV
Huh7 cells
  hepcidin expression: effectively suppress
furin
  clipping of human erythroferrone after treatment with furin: reduced the clipping

B2: Ab 15.1: neutralising anti-ERFE antibody; heavy and light chain SEQ ID NO: 26 and 27 (antibody)
heavy: EVQLQQSGPELVKPGASVKMSCKASGYTFTDYSMHWVKQSHGKSLEWIGYINPNSGGTSYNQKFKGKATLTVNKSSSTAYMELRSLTSEDSAVYYCVPYGYDDYWGQGTTLTVSSAKTTAPSVYPLAPVCGDTTGSSVTLGCLVKGYFPEPVTLTWNSGSLSSGVHTFPAVLQSDLYTLSSSVTVTSSTWPSQSITCNVAHPASSTKVDKKIEPRGPTIKPCPPCKCPAPNLEGGPSVFIFPPKIKDVLMISLSPIVTCVVVDVSEDDPDVQISWFVNNVEVHTAQTQTHREDYNSTLRVVSALPIQHQDWMSGKAFACAVNNKDLPAPIERTISKPKGSVRAPQVYVLPPPEEEMTKKQVTLTCMVTDFMPEDIYVEWTNNGKTELNYKNTEPVLDSDGSYFMYSKLRVEKKNWVERNSYSCSVVHEGLHNHHTTKSFSRTPG
light: DVLMTQTPLSLPVSLGDQVSISCRSSQSIVHSNGNTYLEWYLQKPGQSPKLLIYKVSNRFSGVPDRFSGSGSGTDFTLRITRVAAEDLGVYYCFQGSHVPLTFGAGTKLELKRTDAAPTVSIFPPSSEQLTSGGASVVCFLNNFYPKDINVKWKIDGSERQNGVLNSWTDQDSKDSTYSMSSTLTLTKDEYERHNSYTCEATHKTSTSPIVKSFNRNEC
[1]
  inhibition of ERFE suppression of hepcidin production: inhibit ERFE suppression of hepcidin production in a dose-dependent manner
Murine ERFE
  block of ERFE activity on BMPs (HAMP and ID1 expression): prevent BMP inhibition
